Assay results from publication PMC5095914.

Assays:
[1] = biological target: YidC cysteine mutant labelled with Cy3 at position 454 (E. coli) (UniProt P25714); test: other fluorescence titration; 60 nM Cy3-labelled YidC in 20 mM Hepes/KOH pH 7.5, 100 mM KCl, 10 mM MgOAc2, 5% glycerol, 0.1% DDM mixed 1:1 with 0.6 nM to 19.2 µM 70S ribosomes; 10 min at 20°C; fluorescence intensity on a Monolith NT.115; four repeats
[2] = biological target: xFOc (subunit c of the ATP synthase with cysteines C21 and C65), expressed in E. coli C43 membranes (E. coli) (UniProt P68699); test: cross-linking; E. coli C43 membranes expressing xFOc oxidised with copper-1,10-phenanthroline (CuPh), with or without DTT; SDS-PAGE, western blotting with FOc antibody
[3] = biological target: xFOc (subunit c of the ATP synthase with cysteines C21 and C65), in vitro translated (E. coli) (UniProt P68699); test: cross-linking; xFOc translated in vitro and inserted into proteoliposomes (large scale); mild oxidising conditions (lipids, atmospheric oxygen), no CuPh; non-reducing SDS-PAGE, phosphor imaging; c10-ring with HTL, SecYEG or without YidC, not with YidC alone

70S ribosomes (complex)
Kd [1]: 161 nM

xFOc (subunit c of the ATP synthase with cysteines C21 and C65), expressed in E. coli C43 membranes (from UniProt P68699 1-79) (natural protein)
stoichiometry N [2]: 10

xFOc (subunit c of the ATP synthase with cysteines C21 and C65), in vitro translated (from UniProt P68699 1-79) (natural protein)
stoichiometry N [3]: 10
